The text below walks through data of paper PMC12884264.

The target in assay [1] is supercharged green fluorescent protein GFP(+36) [GFP: P42212]. Put plainly: SEC. In general terms: Size exclusion chromatography separates by hydrodynamic size, large species first.
The target of assay [2] is supercharged green fluorescent protein GFP(+28) [GFP: P42212]. The experiment in a line: SEC.
Assay [3] concerns the target computationally designed GFP(+16)BE (positive charges mainly at both ends of the barrel) [GFP: P42212]. Put plainly: SEC.
Assay [4] deals with Archaeoglobus fulgidus ferritin, wildtype (Archaeoglobus fulgidus) (UniProt O29424). Put plainly: time-resolved fluorescence anisotropy. (In fluorescence polarisation assays a small probe gives low polarisation when free and higher when bound to something large.)
Assay [5] has the same target. Put plainly: SEC + other: UV/Vis absorbance.

As to “Archaeoglobus fulgidus ferritin, wildtype (from UniProt O29424 1-173) (natural protein)”, the results for the dissociation constant (Kd) in assay [1], in assay [2] and in assay [3] were 22.7 µM, 36.7 µM and 51.5 µM, respectively. Moreover, the stoichiometry N (GFP per 24 mer) in assay [1] was determined as 3.
In the case of “supercharged green fluorescent protein GFP(+36) (from UniProt P42212 1-238)”, in assay [4], the stoichiometry N (AfFtn2 per GFP(+36)) came out at 12 and the stoichiometry N (GFP(+36) per cage) turned out to be 1. Further, in assay [5], the stoichiometry N (GFP per ferritin cage) was in the range of 2 to 3, the stoichiometry N (GFP(+36) per 24 mer ferritin) was 0.7, the stoichiometry N (GFP(+36) per AfFtn24) stood at 1.2 and the stoichiometry N (GFP(+36) per ferritin 24 mer) lay in the range of 4 to 5.
